# Laboratory results reported in PMC9841404, “Werner syndrome protein works as a dimer for unwinding and replication fork regression”.
# How the values were obtained:
# [1] = target: T1, f:GFP-WRN (Werner syndrome protein) (Homo sapiens, UniProt Q14191 1-1432); test: single-molecule TIRF GFP photobleaching; no ATP; tetramer (binomial n=4); Binding buffer, pH and temperature not in the material; 24 nM GFP-WRN in the forked-DNA unwinding assay (1 nM RPA); NaCl tested at 15, 50 and 150 mM on the replication fork; GFP imaging without oxygen scavenger; settings: protein: recombinant; tags: N-terminal FLAG and GFP; chain copies: 2; label: Cy3 and Cy5 FRET pair; 5' biotin on leading parent; four-strand fork 1:3 2:4 3:4; 11-nt leading gap, 2-nt lagging gap; heterologous bases near junction
# T1 sequence (Q14191 whole entry): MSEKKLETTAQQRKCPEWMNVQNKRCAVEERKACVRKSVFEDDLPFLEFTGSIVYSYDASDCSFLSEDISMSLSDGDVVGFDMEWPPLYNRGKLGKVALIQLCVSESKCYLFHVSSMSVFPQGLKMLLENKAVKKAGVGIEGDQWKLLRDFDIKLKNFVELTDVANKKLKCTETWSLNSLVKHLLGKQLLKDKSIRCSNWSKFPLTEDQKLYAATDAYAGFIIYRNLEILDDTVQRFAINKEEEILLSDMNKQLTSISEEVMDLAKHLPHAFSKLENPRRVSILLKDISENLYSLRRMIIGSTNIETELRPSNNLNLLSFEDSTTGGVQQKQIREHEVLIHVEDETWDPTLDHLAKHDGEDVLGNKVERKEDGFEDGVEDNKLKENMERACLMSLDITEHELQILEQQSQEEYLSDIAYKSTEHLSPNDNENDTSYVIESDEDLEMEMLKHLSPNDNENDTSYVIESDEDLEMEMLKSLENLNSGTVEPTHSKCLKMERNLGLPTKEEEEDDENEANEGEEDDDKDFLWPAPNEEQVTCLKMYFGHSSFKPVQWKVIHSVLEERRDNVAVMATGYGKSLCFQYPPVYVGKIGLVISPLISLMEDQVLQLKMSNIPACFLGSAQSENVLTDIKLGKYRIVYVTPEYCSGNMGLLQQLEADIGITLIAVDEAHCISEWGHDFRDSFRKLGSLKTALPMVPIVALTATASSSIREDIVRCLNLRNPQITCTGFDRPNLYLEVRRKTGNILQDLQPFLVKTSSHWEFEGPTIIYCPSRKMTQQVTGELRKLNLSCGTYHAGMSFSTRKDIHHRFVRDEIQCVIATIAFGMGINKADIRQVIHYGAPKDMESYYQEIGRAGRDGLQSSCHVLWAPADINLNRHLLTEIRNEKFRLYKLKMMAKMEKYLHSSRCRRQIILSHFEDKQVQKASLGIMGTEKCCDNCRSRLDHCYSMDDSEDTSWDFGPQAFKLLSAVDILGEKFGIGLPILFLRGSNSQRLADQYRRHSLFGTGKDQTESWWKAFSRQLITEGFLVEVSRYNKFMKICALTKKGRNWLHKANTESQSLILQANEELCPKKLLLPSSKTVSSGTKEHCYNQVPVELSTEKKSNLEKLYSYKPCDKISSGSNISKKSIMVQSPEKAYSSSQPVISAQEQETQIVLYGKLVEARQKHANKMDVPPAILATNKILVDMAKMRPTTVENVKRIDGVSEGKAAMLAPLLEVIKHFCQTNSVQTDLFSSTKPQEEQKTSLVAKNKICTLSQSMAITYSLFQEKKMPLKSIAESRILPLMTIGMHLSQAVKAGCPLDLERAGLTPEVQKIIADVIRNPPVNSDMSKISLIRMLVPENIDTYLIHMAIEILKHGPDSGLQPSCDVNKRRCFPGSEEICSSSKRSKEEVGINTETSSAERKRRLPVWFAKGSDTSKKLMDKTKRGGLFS
# [2] = target: T1, f:GFP-WRN (Werner syndrome protein); test: single-molecule TIRF GFP photobleaching; 1 mM ATP-Mg2+, 2 min; active molecules dimeric; Binding buffer, pH and temperature not in the material; 24 nM GFP-WRN in the forked-DNA unwinding assay (1 nM RPA); NaCl tested at 15, 50 and 150 mM on the replication fork; GFP imaging without oxygen scavenger; settings: protein: recombinant; tags: N-terminal FLAG and GFP; chain copies: 2; label: Cy3 and Cy5 FRET pair; 5' biotin on leading parent; four-strand fork 1:3 2:4 3:4; heterologous distal arm ends
# [3] = target: T1, f:GFP-WRN (Werner syndrome protein); test: single-molecule TIRF GFP photobleaching; no ATP; dimer preferred, heterogeneous up to 4 steps; 1 nM RPA did not change conclusion; Binding buffer, pH and temperature not in the material; 24 nM GFP-WRN in the forked-DNA unwinding assay (1 nM RPA); NaCl tested at 15, 50 and 150 mM on the replication fork; GFP imaging without oxygen scavenger; settings: protein: recombinant; tags: N-terminal FLAG and GFP; chain copies: 2; label: Cy3 and Cy5 in the single-stranded overhangs; 5' biotin on bottom strand; fork 1:2, 3' ssDNA arm on top and 5' ssDNA arm on bottom
binder,measurement,setting,value
"Model replication fork (Figure 1B) (structured_DNA, amino C6 dT at dye sites of the daughter strands) DNA 1: TCGACAGGTCATGGCCGTACATGATATCCTCGAGCGGTCCTGTTGCAACTTA DNA 2: TCAGAGTGTTAAGTTGCAACAGGACCGCTCGAGGATATCATGTACGGCCATGACCTGTCG DNA 3: TGTTAACCCTAACCCTAAGAATTCGGCTTAAGTGAGTGTTAAGTTGCAACAGGACCGCTCGAGGATATCATGTACGGCCATGACCTGTCGA DNA 4: CGACAGGTCATGGCCGTACATGATATCCTCGAGCGGTCCTGTTGCAACTTAACACTCTGAATAGCCGAATTCTTAGGGTTAGGGTTAACA",binding result,[1],binds
"Replication fork with 15 bp non-homologous region (Figure 3D) (structured_DNA, amino C6 dT at dye sites of the daughter strands) DNA 1: TCGACAGGTCATGGCCGTACATGATATCCTCGAGCGGTCCTGTTGC DNA 2: TCAGAGTGTGCAACAGGACCGCTCGAGGATATCATGTACGATAGCTTGGCCGCAT DNA 3: TGTTAACCCTAACCCTAAGAATTCGGCTTAAGTGAGTGTGCAACAGGACCGCTCGAGGATATCATGTACGGCCATGACCTGTCGA DNA 4: ATGCGGCCAAGCTATCGTACATGATATCCTCGAGCGGTCCTGTTGCACACTCTGAATAGCCGAATTCTTAGGGTTAGGGTTAACA",binding result,[2],binds
"Forked DNA (Figure 1A) (structured_DNA, amino C6 dT at dye sites) DNA 1: GAGAAGCACGCTGCCGAATTCTACCAGTGCCTTGCTAGGACATGTTTGCCTTTTTTTTTTTTTTTTTTTTTTTTTTTTTT DNA 2: TTTTTTTTTTTTTTTTTTTTTTTTGGCAAACATGTCCTAGCAAGGCACTGGTAGAATTCGGCAGCGTGCTTCTC",binding result,[3],binds
